This data set concerns the molecule itself. The experiment in a line: SEC-MALS.

B1: recombinant human ADA2 (adenosine deaminase 2), aa29-511 (enzyme, UniProt Q9NZK5 29-511, looked up)
chain: SIDETRAHLLLKEKMMRLGGRLVLNTKEELANERLMTLKIAEMKEAMRTLIFPPSMHFFQAKHLIERSQVFNILRMMPKGAALHLHDIGIVTMDWLVRNVTYRPHCHICFTPRGIMQFRFAHPTPRPSEKCSKWILLEDYRKRVQNVTEFDDSLLRNFTLVTQHPEVIYTNQNVVWSKFETIFFTISGLIHYAPVFRDYVFRSMQEFYEDNVLYMEIRARLLPVYELSGEHHDEEWSVKTYQEVAQKFVETHPEFIGIKIIYSDHRSKDVAVIAESIRMAMGLRIKFPTVVAGFDLVGHEDTGHSLHDYKEALMIPAKDGVKLPYFFHAGETDWQGTSIDRNILDALMLNTTRIGHGFALSKHPAVRTYSWKKDIPIEVCPISNQVLKLVSDLRNHPVATLMATGHPMVISSDDPAMFGAKGLSYDFYEVFMGIGGMKADLRTLKQLAMNSIKYSTLLESEKNTFMEIWKKRWDKFIADVATK
As for B1, the binding result is given as “binds”.

Source of the values: publication doi:10.1101/2020.06.21.162990 (bioRxiv, 2020).
